Experimental data: the supplement of paper PMC5998384

Legend:
HeLa Kyoto [1] = assay: melting temperature (median over replicates), in situ; higher = more thermally stable
HeLa Kyoto [2] = assay: solubility in G1/S (NP-40 vs SDS abundance) (log2 ratio); higher = more soluble; settings: cell cycle stage: G1/S
HeLa Kyoto [3] = assay: solubility change mitosis vs G1/S (difference of NP-40 vs SDS log2 ratios) (log2 ratio difference); higher = more soluble in mitosis
HeLa Kyoto [4] = assay: thermal stability score vs G1/S (z-score of summed log2 fold changes over temperatures); higher = more thermally stable than in G1/S
[5] = cell cycle stage: early G1 (4.5 h after nocodazole release)
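Throughout, for melting temperature (median over replicates), in situ: HeLa Kyoto cells synchronized by double thymidine or nocodazole block, proteins quantified by TMT10plex mass spectrometry, three independent biological replicates.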
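Throughout, for solubility change mitosis vs G1/S (difference of NP-40 vs SDS log2 ratios): synchronized HeLa Kyoto cells (double thymidine block for G1/S, nocodazole release for mitosis), protein amounts in NP-40 versus SDS lysates quantified by mass spectrometry, three biological replicates.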
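Throughout, for solubility in G1/S (NP-40 vs SDS abundance): HeLa Kyoto cells arrested at G1/S by double thymidine block, proteins quantified by TMT10plex mass spectrometry in mild NP-40 versus SDS extracts, three biological replicates.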
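Throughout, for thermal stability score vs G1/S (z-score of summed log2 fold changes over temperatures): synchronized HeLa Kyoto cells, proteins quantified by TMT10plex mass spectrometry, three biological replicates, mitosis taken 0.5 h after nocodazole release, G1/S directly after double thymidine block.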

Sequence | melting temperature (HeLa Kyoto [1]; cell cycle stage: G1/S) [°C] | melting temperature (HeLa Kyoto [1]; cell cycle stage: mitosis) [°C] | solubility in G1/S (log2) (HeLa Kyoto [2]) | solubility change mitosis (log2) (HeLa Kyoto [3]) | thermal stability score (HeLa Kyoto [4]; [5]) | thermal stability score (HeLa Kyoto [4]; cell cycle stage: mitosis)
MLSSTAMYSAPGRDLGMEPHRAAGPLQLRFSPYVFNGGTILAIAGEDFAIVASDTRLSEGFSIHTRDSPKCYKLTDKTVIGCSGFHGDCLTLTKIIEARLKMYKHSNNKAMTTGAIAAMLSTILYSRRFFPYYVYNIIGGLDEEGKGAVYSFDPVGSYQRDSFKAGGSASAMLQPLLDNQVGFKNMQNVEHVPLSLDRAMRLVKDVFISAAERDVYTGDALRICIVTKEGIREETVSLRKD [PSMB1] | 57 | 60.1 | -0.00543 | -0.098 | -1.78 | -1.88
MLVLRSALTRALASRTLAPQMCSSFATGPRQYDGIFYEFRSYYLKPSKMNEFLENFEKNAHLRTAHSELVGYWSVEFGGRMNTVFHIWKYDNFAHRTEVRKALAKDKEWQEQFLIPNLALIDKQESEITYLVPWCKLEKPPKEGVYELATFQMKPGGPALWGDAFKRAVHAHVNLGYTKLVGVFHTEYGALNRVHVLWWNESADSRAAGRHKSHEDPRVVAAVRESVNYLVSQQNMLLIPTSFSPLK [NIPSNAP3A] | 56.2 | 57.7 | -0.107 | -0.224 | -1.76 | -2.47
MLVSGRRRLLTVLLQAQKWPFQPSRDMRLVQFRAPHLVGPHLGLETGNGGGVINLNAFDPTLPKTMTQFLEQGEATLSVARRALAAQLPVLPRSEVTFLAPVTRPDKVVCVGMNYVDHCKEQNVPVPKEPIIFSKFASSIVGPYDEVVLPPQSQEVDWEVELAVVIGKKGKHIKATDAMAHVAGFTVAHDVSARDWQMRRNGKQWLLGKTFDTFCPLGPALVTKDSVADPHNLKICCRVNGEVVQSGNTNQMVFKTEDLIAWVSQFVTFYPGDVILTGTPPGVGVFRKPPVFLKKGDEVQCEIEELGVIINKVV [FAHD2A] | 55.7 | 56.4 | 0.253 | -0.192 | -1.17 | -2.54
MLVVEVANGRSLVWGAEAVQALRERLGVGGRTVGALPRGPRQNSRLGLPLLLMPEEARLLAEIGAVTLVSAPRPDSRHHSLALTSFKRQQEESFQEQSALAAEARETRRQELLEKITEGQAAKKQKLEQASGASSSQEAGSSQAAKEDETSDGQASGEQEEAGPSSSQAGPSNGVAPLPRSALLVQLATARPRPVKARPLDWRVQSKDWPHAGRPAHELRYSIYRDLWERGFFLSAAGKFGGDFLVYPGDPLRFHAHYIAQCWAPEDTIPLQDLVAAGRLGTSVRKTLLLCSPQPDGKVVYTSLQWASLQ [TSEN34] | 49.3 | 49.8 | 0.191 | -0.159 | 1.68 | 2.17
MLWFQGAIPAAIATAKRSGAVFVVFVAGDDEQSTQMAASWEDDKVTEASSNSFVAIKIDTKSEACLQFSQIYPVVCVPSSFFIGDSGIPLEVIAGSVSADELVTRIHKVRQMHLLKSETSVANGSQSESSVSTPSASFEPNNTCENSQSRNAELCEIPPTSDTKSDTATGGESAGHATSSQEPSGCSDQRPAEDLNIRVERLTKKLEERREEKRKEEEQREIKKEIERRKTGKEMLDYKRKQEEELTKRMLEERNREKAEDRAARERIKQQIALDRAERAARFAKTKEEVEAAKAAALLAKQAEMEVKRESYARERSTVARIQFRLPDGSSFTNQFPSDAPLEEARQFAAQTVGNTYGNFSLATMFPRREFTKEDYKKKLLDLELAPSASVVLLPAGRPTASIVHSSSGDIWTLLGTVLYPFLAIWRLISNFLFSNPPPTQTSVRVTSSEPPNPASSSKSEKREPVRKRVLEKRGDDFKKEGKIYRLRTQDDGEDENNTWNGNSTQQM [UBXN4] | 51.8 | 52.1 | -0.0609 | -0.108 | -0.0363 | 0.462
MLYFSLFWAARPLQRCGQLVRMAIRAQHSNAAQTQTGEANRGWTGQESLSDSDPEMWELLQREKDRQCRGLELIASENFCSRAALEALGSCLNNKYSEGYPGKRYYGGAEVVDEIELLCQRRALEAFDLDPAQWGVNVQPYSGSPANLAVYTALLQPHDRIMGLDLPDGGHLTHGYMSDVKRISATSIFFESMPYKLNPKTGLIDYNQLALTARLFRPRLIIAGTSAYARLIDYARMREVCDEVKAHLLADMAHISGLVAAKVIPSPFKHADIVTTTTHKTLRGARSGLIFYRKGVKAVDPKTGREIPYTFEDRINFAVFPSLQGGPHNHAIAAVAVALKQACTPMFREYSLQVLKNARAMADALLERGYSLVSGGTDNHLVLVDLRPKGLDGARAERVLELVSITANKNTCPGDRSAITPGGLRLGAPALTSRQFREDDFRRVVDFIDEGVNIGLEVKSKTAKLQDFKSFLLKDSETSQRLANLRQRVEQFARAFPMPGFDEH [SHMT2] | 56.7 | 56.8 | 0.416 | -0.0179 | 0.0206 | 0.314
MMAAEAGSEEGGPVTAGAGGGGAAAGSSAYPAVCRVKIPAALPVAAAPYPGLVETGVAGTLGGGAALGSEFLGAGSVAGALGGAGLTGGGTAAGVAGAAAGVAGAAVAGPSGDMALTKLPTSLLAETLGPGGGFPPLPPPPYLPPLGAGLGTVDEGDSLDGPEYEEEEVAIPLTAPPTNQWYHGKLDRTIAEERLRQAGKSGSYLIRESDRRPGSFVLSFLSQMNVVNHFRIIAMCGDYYIGGRRFSSLSDLIGYYSHVSCLLKGEKLLYPVAPPEPVEDRRRVRAILPYTKVPDTDEISFLKGDMFIVHNELEDGWMWVTNLRTDEQGLIVEDLVEEVGREEDPHEGKIWFHGKISKQEAYNLLMTVGQVCSFLVRPSDNTPGDYSLYFRTNENIQRFKICPTPNNQFMMGGRYYNSIGDIIDHYRKEQIVEGYYLKEPVPMQDQEQVLNDTVDGKEIYNTIRRKTKDAFYKNIVKKGYLLKKGKGKRWKNLYFILEGSDAQLIYFESEKRATKPKGLIDLSVCSVYVVHDSLFGRPNCFQIVVQHFSEEHYIFYFAGETPEQAEDWMKGLQAFCNLRKSSPGTSNKRLRQVSSLVLHIEEAHKLPVKHFTNPYCNIYLNSVQVAKTHAREGQNPVWSEEFVFDDLPPDINRFEITLSNKTKKSKDPDILFMRCQLSRLQKGHATDEWFLLSSHIPLKGIEPGSLRVRARYSMEKIMPEEEYSEFKELILQKELHVVYALSHVCGQDRTLLASILLRIFLHEKLESLLLCTLNDREISMEDEATTLFRATTLASTLMEQYMKATATQFVHHALKDSILKIMESKQSCELSPSKLEKNEDVNTNLTHLLNILSELVEKIFMASEILPPTLRYIYGCLQKSVQHKWPTNTTMRTRVVSGFVFLRLICPAILNPRMFNIISDSPSPIAARTLILVAKSVQNLANLVEFGAKEPYMEGVNPFIKSNKHRMIMFLDELGNVPELPDTTEHSRTDLSRDLAALHEICVAHSDELRTLSNERGAQQHVLKKLLAITELLQQKQNQYTKTNDVR [RASA1] | 49.8 | 50.1 | -0.0958 | -0.135 | 0.554 | 0.915
MMAAVPPGLEPWNRVRIPKAGNRSAVTVQNPGAALDLCIAAVIKECHLVILSLKSQTLDAETDVLCAVLYSNHNRMGRHKPHLALKQVEQCLKRLKNMNLEGSIQDLFELFSSNENQPLTTKVCVVPSQPVVELVLMKVLGACKLLLRLLDCCCKTFLLTVKHLGLQEFIILNLVMVGLVSRLWVLYKGVLKRLILLYEPLFGLLQEVARIQPMPYFKDFTFPSDITEFLGQPYFEAFKKKMPIAFAAKGINKLLNKLFLINEQSPRASEETLLGISKKAKQMKINVQNNVDLGQPVKNKRVFKEESSEFDVRAFCNQLKHKATQETSFDFKCSQSRLKTTKYSSQKVIGTPHAKSFVQRFREAESFTQLSEEIQMAVVWCRSKKLKAQAIFLGNKLLKSNRLKHLEAQGTSLPKKLECIKTSICNHLLRGSGIKTSKHHLRQRRSQNKFLRRQRKPQRKLQSTLLREIQQFSQGTRKSATDTSAKWRLSHCTVHRTDLYPNSKQLLNSGVSMPVIQTKEKMIHENLRGIHENETDSWTVMQINKNSTSGTIKETDDIDDIFALMGV [NEPRO] | 49.7 | 50.3 | -0.993 | 0.574 | -0.703 | -1.65
MMADGAAAGAGGSPSLRELRARMVAAANEIAKERRKQDVVNRVATHSSNIRSTFKPVIDGSMLKNDIKQRLARERREEKRRQQDANKETQLLEKERKTKLQYEKQMEERQRKLKERKEKEEQRRIAAEEKRHQKDEAQKEKFTAILYRTLERRRLADDYQQKRWSWGGSAMANSESKTANKRSASTEKLEQGTSALIRQMPLSSAGLQNSVAKRKTDKERSSSLNRRDSNLHSSTDKEQAERKPRVTGVTNYVMQYVTVPLRKCTSDELRAVMFPMSTMKIPPQTKVEESPLEKVETPPKASVDAPPQVNVEVFCNTSMEASPKAGVGMAPEVSTDSFPVVSVDVSPVVSTYDSEMSMDASPELSIEALPKVDLETVPKVSIVASPEASLEAPPEVSLEALPEVSVEAAPEGSLEAPPKGSAEVAPKESVKGSPKESMEASPEAMVKASPKTSLEASMEASPKAKARDAPKKSEMDKQALIPIAKKRLSSYTECYKWSSSPENACGLPSPISTNRQIQKNCPPSPLPLISKQSPQTSFPYKIMPIQHTLSVQSASSTVKKKKETVSKTTNRCEALSQRHMIYEESGNKSTAGIMNAEAATKILTELRRLAREQREKEEEERQREEMQQRVIKKSKDMAKEAVGGQAEDHLKLKDGQQQNETKKKKGWLDQEDQEAPLQKGDAKIKAQEEADKRKKEHERIMLQNLQERLERKKRIEEIMKRTRKTDVNASKVTETSSHDIYEEAEADNEESDKDSLNEMFPSAILNGTGSPTKFKMPFNNAKKMTHKLVFLEDGTSQVRKEPKTYFNGDLKNFRQKSMKDTSIQEVVSRPSSKRMTSHTTKTRKADETNTTSRSSAQTKSEGFHDILPKSSDTFRQ [MAP7D3] | 50.4 | 52.8 | -0.211 | 0.189 | 2.41 | 6.63
MMEDDGQPRTLYVGNLSRDVTEVLILQLFSQIGPCKSCKMITEHTSNDPYCFVEFYEHRDAAAALAAMNGRKILGKEVKVNWATTPSSQKKDTSNHFHVFVGDLSPEITTEDIKSAFAPFGKISDARVVKDMATGKSKGYGFVSFYNKLDAENAIVHMGGQWLGGRQIRTNWATRKPPAPKSTQENNTKQLRFEDVVNQSSPKNCTVYCGGIASGLTDQLMRQTFSPFGQIMEIRVFPEKGYSFVRFSTHESAAHAIVSVNGTTIEGHVVKCYWGKESPDMTKNFQQVDYSQWGQWSQVYGNPQQYGQYMANGWQVPPYGVYGQPWNQQGFGVDQSPSAAWMGGFGAQPPQGQAPPPVIPPPNQAGYGMASYQTQ [TIAL1] | 52.3 | 52 | 0.13 | -0.0732 | -1.16 | -2.29
MMEERAAAAVAAAASSCRPLGSGAGPGPTGAAPVSAPAPGPGPAGKGGGGGGSPGPTAGPEPLSLPGILHFIQHEWARFEAEKARWEAERAELQAQVAFLQGERKGQENLKTDLVRRIKMLEYALKQERAKYHKLKFGTDLNQGEKKADVSEQVSNGPVESVTLENSPLVWKEGRQLLRQYLEEVGYTDTILDMRSKRVRSLLGRSLELNGAVEPSEGAPRAPPGPAGLSGGESLLVKQIEEQIKRNAAGKDGKERLGGSVLGQIPFLQNCEDEDSDEDDELDSVQHKKQRVKLPSKALVPEMEDEDEEDDSEDAINEFDFLGSGEDGEGAPDPRRCTVDGSPHELESRRVKLQGILADLRDVDGLPPKVTGPPPGTPQPRPHEDVFIMDTIGGGEVSLGDLADLTVTNDNDLSCDLSDSKDAFKKTWNPKFTLRSHYDGIRSLAFHHSQSALLTASEDGTLKLWNLQKAVTAKKNAALDVEPIHAFRAHRGPVLAVAMGSNSEYCYSGGADACIHSWKIPDLSMDPYDGYDPSVLSHVLEGHGDAVWGLAFSPTSQRLASCSADGTVRIWDPSSSSPACLCTFPTASEHGVPTSVAFTSTEPAHIVASFRSGDTVLYDMEVGSALLTLESRGSSGPTQINQVVSHPNQPLTITAHDDRGIRFLDNRTGKPVHSMVAHLDAVTCLAVDPNGAFLMSGSHDCSLRLWSLDNKTCVQEITAHRKKHEEAIHAVACHPSKALIASAGADALAKVFV [STRN4] | 50.6 | 50.4 | 0.104 | -0.085 | 0.143 | 0.0318
